Data published in paper PMC3517609.
“And” between values parts separate entries of the source, which are not always exact repeats. Identical values can stand only once.

Tests used:
[1] = target: Surfactant associated protein-A (human (endogenous in BAL fluid and serum)) (UniProt Q8IWL2)
[2] = target: Surfactant associated protein-A (human (endogenous in BAL fluid and serum)) (UniProt Q8IWL2); test: SEC; Superose 6 column, 500 µl of serum loaded, fractions of 800 µl, SP-A in the fractions by slot blot; column calibrated with blue dextran (2000 kDa), holotransferrin (669 kDa) and bovine serum albumin (66 kDa); a peak counts as present at 20 % or more of total SP-A
[3] = target: Surfactant associated protein-A (human (endogenous in BAL fluid and serum)) (UniProt Q8IWL2); test: as above; remark: listed apart in the source
[4] = target: Surfactant associated protein-A (human (endogenous in BAL fluid and serum)) (UniProt Q8IWL2); test: SEC; Superose 6 column, 1 ml of BAL fluid loaded, fractions of 800 µl, SP-A in the fractions by slot blot; column calibrated with blue dextran (2000 kDa), holotransferrin (669 kDa) and bovine serum albumin (66 kDa); a peak counts as present at 20 % or more of total SP-A

size of agglutinates of anti-SP-A latex beads; BAL, 6mers, chronic bronchitis (n = 10) [1]: 316 Pixel
size of agglutinates of anti-SP-A latex beads; BAL, 6mers, controls (n = 10) [1]: 352 Pixel
size of agglutinates of anti-SP-A latex beads; BAL, 6mers, cystic fibrosis (n = 10) [1]: 234 Pixel
size of agglutinates of anti-SP-A latex beads; BAL, 18mers, chronic bronchitis (n = 10) [1]: 370 Pixel
size of agglutinates of anti-SP-A latex beads; BAL, 18mers, controls (n = 10) [1]: 517 Pixel
size of agglutinates of anti-SP-A latex beads; BAL, 18mers, cystic fibrosis (n = 10) [1]: 316 Pixel
size of agglutinates of anti-SP-A latex beads; BAL, trimers, chronic bronchitis (n = 10) [1]: 114 Pixel
size of agglutinates of anti-SP-A latex beads; BAL, trimers, controls (n = 10) [1]: 118 Pixel
size of agglutinates of anti-SP-A latex beads; BAL, trimers, cystic fibrosis (n = 10) [1]: 74 Pixel
size of agglutinates of anti-SP-A latex beads; serum, 6mers, chronic bronchitis (n = 10) [1]: 377 Pixel
size of agglutinates of anti-SP-A latex beads; serum, 6mers, controls (n = 10) [1]: 361 Pixel
size of agglutinates of anti-SP-A latex beads; serum, 6mers, cystic fibrosis (n = 10) [1]: 380 Pixel
size of agglutinates of anti-SP-A latex beads; serum, 18mers, chronic bronchitis (n = 10) [1]: 469 Pixel
size of agglutinates of anti-SP-A latex beads; serum, 18mers, controls (n = 10) [1]: 525 Pixel
size of agglutinates of anti-SP-A latex beads; serum, 18mers, cystic fibrosis (n = 10) [1]: 481 Pixel
size of agglutinates of anti-SP-A latex beads; serum, trimers, chronic bronchitis (n = 10) [1]: 143 Pixel
size of agglutinates of anti-SP-A latex beads; serum, trimers, controls (n = 10) [1]: 132 Pixel
size of agglutinates of anti-SP-A latex beads; serum, trimers, cystic fibrosis (n = 10) [1]: 146 Pixel
stoichiometry N [2]: 18
stoichiometry N [3]: 2 and 3
stoichiometry N [4]: 18
Substance: Surfactant associated protein-A (from UniProt Q8IWL2 21-248) (natural protein)
